Experimental data: patent US20200173960A1

Tests used:
[1] = biological target: bevacizumab; assay: Bevacizumab PK ELISA (anti-idiotype capture) of bevacizumab 0.5 ug/mL pre-bound with ADA; bevacizumab:ADA 1:1
[2] = biological target: bevacizumab; assay: Bevacizumab PK ELISA (anti-idiotype capture) of bevacizumab 50 ug/mL pre-bound with ADA; bevacizumab:ADA 1:1
[3] = biological target: bevacizumab; assay: Bevacizumab PK ELISA (anti-idiotype capture) of bevacizumab 0.5 ug/mL pre-bound with ADA; bevacizumab:ADA 10:1
[4] = biological target: bevacizumab; assay: Bevacizumab PK ELISA (anti-idiotype capture) of bevacizumab 0.5 ug/mL pre-bound with ADA; bevacizumab:ADA 1:100
[5] = biological target: bevacizumab; assay: Bevacizumab PK ELISA (anti-idiotype capture) of bevacizumab 0.5 ug/mL pre-bound with ADA; bevacizumab:ADA 1:5
[6] = biological target: bevacizumab; assay: Bevacizumab PK ELISA (anti-idiotype capture) of bevacizumab 0.5 ug/mL pre-bound with ADA; bevacizumab:ADA 5:1
[7] = biological target: bevacizumab; assay: Bevacizumab PK ELISA (anti-idiotype capture) of bevacizumab 50 ug/mL pre-bound with ADA; bevacizumab:ADA 10:1
[8] = biological target: bevacizumab; assay: Bevacizumab PK ELISA (anti-idiotype capture) of bevacizumab 50 ug/mL pre-bound with ADA; bevacizumab:ADA 5:1
[9] = biological target: bevacizumab; assay: Bevacizumab PK ELISA (anti-idiotype capture) of bevacizumab 0.5 ug/mL pre-bound with ADA; bevacizumab:ADA 1:50
[10] = biological target: bevacizumab; assay: Bevacizumab PK ELISA (anti-idiotype capture) of bevacizumab 0.5 ug/mL pre-bound with ADA; bevacizumab:ADA 1:10
[11] = biological target: bevacizumab; assay: Bevacizumab PK ELISA (anti-idiotype capture) of bevacizumab 50 ug/mL pre-bound with ADA; bevacizumab:ADA 100:1
[12] = biological target: bevacizumab; assay: cell-based or functional assay
[13] = biological target: bevacizumab; assay: method not stated; affinity listed for the purchased ADA
[14] = biological target: bevacizumab; assay: Bevacizumab PK ELISA (anti-idiotype capture) of bevacizumab 0.5 ug/mL pre-bound with ADA; bevacizumab:ADA 1:2

HCA185 (antibody)
Accuracy (%) ELISA [1]: 73.5%
Accuracy (%) ELISA [2]: 76.8%
Accuracy (%) ELISA [3]: 104%
Accuracy (%) ELISA [4]: 35.2%
Accuracy (%) ELISA [5]: 39.6%
Accuracy (%) ELISA [6]: 86.6%
Accuracy (%) ELISA [7]: 84.1%
Accuracy (%) ELISA [8]: 76.2%
Accuracy (%) ELISA [9]: 37.2%
Accuracy (%) ELISA [10]: 38.9%
Accuracy (%) ELISA [11]: 95.6%
Accuracy (%) nSMOL; bevacizumab 0.5 ug/mL; bevacizumab:ADA 1:1 [12]: 95.5%
Accuracy (%) nSMOL; bevacizumab 0.5 ug/mL; bevacizumab:ADA 1:2 [12]: 82.1%
Accuracy (%) nSMOL; bevacizumab 0.5 ug/mL; bevacizumab:ADA 1:5 [12]: 54.8%
Accuracy (%) nSMOL; bevacizumab 0.5 ug/mL; bevacizumab:ADA 1:10 [12]: 22.8%
Accuracy (%) nSMOL; bevacizumab 0.5 ug/mL; bevacizumab:ADA 1:50 [12]: 22.9%
Accuracy (%) nSMOL; bevacizumab 0.5 ug/mL; bevacizumab:ADA 1:100 [12]: 23.1%
Accuracy (%) nSMOL; bevacizumab 0.5 ug/mL; bevacizumab:ADA 5:1 [12]: 105%
Accuracy (%) nSMOL; bevacizumab 0.5 ug/mL; bevacizumab:ADA 10:1 [12]: 107%
Accuracy (%) nSMOL; bevacizumab 50 ug/mL; bevacizumab:ADA 1:1 [12]: 75.7%
Accuracy (%) nSMOL; bevacizumab 50 ug/mL; bevacizumab:ADA 5:1 [12]: 90.3%
Accuracy (%) nSMOL; bevacizumab 50 ug/mL; bevacizumab:ADA 10:1 [12]: 95.8%
Accuracy (%) nSMOL; bevacizumab 50 ug/mL; bevacizumab:ADA 100:1 [12]: 100%
Accuracy (%) nSMOL; bevacizumab first immobilized on Protein A; bevacizumab:ADA 1:1 [12]: 58.9%
Accuracy (%) nSMOL; bevacizumab first immobilized on Protein A; bevacizumab:ADA 5:1 [12]: 90%
Accuracy (%) nSMOL; bevacizumab first immobilized on Protein A; bevacizumab:ADA 10:1 [12]: 106%
Accuracy (%) nSMOL; bevacizumab first immobilized on Protein A; bevacizumab:ADA 100:1 [12]: 105%
inhibitory effect on quantification values (nSMOL), ratio 1:1 [12]: 50%
Kd [13]: 0.4 nM
Accuracy (%) ELISA [14]: 55.8%

MAB11128 (clone2C8) (antibody)
Accuracy (%) ELISA [1]: 6.9%
Accuracy (%) ELISA [2]: 5.72%
Accuracy (%) ELISA [3]: 44.2%
Accuracy (%) ELISA [4]: 0%
Accuracy (%) ELISA [5]: 2.3%
Accuracy (%) ELISA [6]: 14.2%
Accuracy (%) ELISA [7]: 68.5%
Accuracy (%) ELISA [8]: 65.5%
Accuracy (%) ELISA [9]: 0.1%
Accuracy (%) ELISA [10]: 2.4%
Accuracy (%) ELISA [11]: 102%
Accuracy (%) nSMOL; bevacizumab 0.5 ug/mL; bevacizumab:ADA 1:1 [12]: 98.2%
Accuracy (%) nSMOL; bevacizumab 0.5 ug/mL; bevacizumab:ADA 1:2 [12]: 110%
Accuracy (%) nSMOL; bevacizumab 0.5 ug/mL; bevacizumab:ADA 1:5 [12]: 111%
Accuracy (%) nSMOL; bevacizumab 0.5 ug/mL; bevacizumab:ADA 1:10 [12]: 110%
Accuracy (%) nSMOL; bevacizumab 0.5 ug/mL; bevacizumab:ADA 1:50 [12]: 110%
Accuracy (%) nSMOL; bevacizumab 0.5 ug/mL; bevacizumab:ADA 1:100 [12]: 104%
Accuracy (%) nSMOL; bevacizumab 0.5 ug/mL; bevacizumab:ADA 5:1 [12]: 98%
Accuracy (%) nSMOL; bevacizumab 0.5 ug/mL; bevacizumab:ADA 10:1 [12]: 91.3%
Accuracy (%) nSMOL; bevacizumab 50 ug/mL; bevacizumab:ADA 1:1 [12]: 102%
Accuracy (%) nSMOL; bevacizumab 50 ug/mL; bevacizumab:ADA 5:1 [12]: 97.3%
Accuracy (%) nSMOL; bevacizumab 50 ug/mL; bevacizumab:ADA 10:1 [12]: 100%
Accuracy (%) nSMOL; bevacizumab 50 ug/mL; bevacizumab:ADA 100:1 [12]: 101%
Accuracy (%) nSMOL; bevacizumab first immobilized on Protein A; bevacizumab:ADA 1:1 [12]: 106%
Accuracy (%) nSMOL; bevacizumab first immobilized on Protein A; bevacizumab:ADA 5:1 [12]: 106%
Accuracy (%) nSMOL; bevacizumab first immobilized on Protein A; bevacizumab:ADA 10:1 [12]: 104%
Accuracy (%) nSMOL; bevacizumab first immobilized on Protein A; bevacizumab:ADA 100:1 [12]: 109%
Accuracy (%) ELISA [14]: 3.2%
